Molecular target: T1, Sec24 (S. cerevisiae, UniProt P40482 1-926)
T1 construct: Sec24, S. cerevisiae; The Sec24 chain of m2; in the assays it stood in the Sec23–Sec24 complex
T1 sequence: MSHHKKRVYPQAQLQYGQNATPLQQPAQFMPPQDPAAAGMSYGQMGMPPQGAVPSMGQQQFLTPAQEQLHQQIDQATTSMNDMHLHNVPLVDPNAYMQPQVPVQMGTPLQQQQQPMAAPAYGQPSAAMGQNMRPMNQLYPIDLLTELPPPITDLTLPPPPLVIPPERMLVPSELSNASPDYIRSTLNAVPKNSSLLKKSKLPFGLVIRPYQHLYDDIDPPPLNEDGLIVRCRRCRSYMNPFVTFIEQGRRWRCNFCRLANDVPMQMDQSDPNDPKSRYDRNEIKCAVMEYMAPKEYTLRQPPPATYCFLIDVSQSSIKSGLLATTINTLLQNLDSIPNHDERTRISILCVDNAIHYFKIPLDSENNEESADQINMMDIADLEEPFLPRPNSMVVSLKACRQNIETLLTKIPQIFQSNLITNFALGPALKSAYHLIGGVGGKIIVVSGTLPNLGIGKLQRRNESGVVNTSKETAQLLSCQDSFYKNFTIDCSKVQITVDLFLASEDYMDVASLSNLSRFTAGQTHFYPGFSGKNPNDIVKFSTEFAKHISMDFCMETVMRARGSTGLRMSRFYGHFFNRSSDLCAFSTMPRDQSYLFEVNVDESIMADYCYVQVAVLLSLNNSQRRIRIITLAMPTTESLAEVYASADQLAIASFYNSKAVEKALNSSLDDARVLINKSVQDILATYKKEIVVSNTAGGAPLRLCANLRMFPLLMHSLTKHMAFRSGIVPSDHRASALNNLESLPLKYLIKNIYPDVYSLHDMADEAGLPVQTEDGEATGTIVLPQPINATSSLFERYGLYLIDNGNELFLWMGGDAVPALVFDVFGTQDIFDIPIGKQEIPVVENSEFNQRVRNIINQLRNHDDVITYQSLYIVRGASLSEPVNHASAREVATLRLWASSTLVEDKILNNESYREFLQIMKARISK
Assay: cryo-EM structure; cryo-ET with subtomogram averaging of COPII budding reactions on GUVs enriched with Sed5 held by its 6xHis-tag on Ni-NTA lipids: 1 μM Sar1, 180 nM Sec23–Sec24, 173 μM Sec13–Sec31, 360 nM Sed5, 1 mM GMP-PNP, 2.5 mM EDTA (pH 8.0), 10% GUVs (v/v); coated tubes; atomic models rigid-body fitted
Conditions: both partners purified

binding result: binds
B1: Sed5 cytosolic domain (residues 1–319) with C-terminal 6xHis-tag (domain or fragment, S. cerevisiae)
chain: MNIKDRTSEFQQSVLSYKKRNKNFREQQRERLQEKESENFANNTTGNGKSVSEFQKKASGIAHEISSTAQLLSKLAVLAKRKPMFNDNPVEIAELSFLIKRKIYAIEQSLVQLSQLKKTDVNGNTSNQSSKQPSAVQHSKNVVNLLNTQMKNISGSFKDVLEERQRLEMANKDRWQKLTTDTGHAPADDQTQSNHAADLTTYNNSNPFMTSLLDESSEKNNNSSNQGELSFPQNDSQLMLMEEGQLSNNVYLQERNRAVETIESTIQEVGNLFQQLASMVQEQGEVIQRIDANVDDIDLNISGAQRELLKYFDRIKSNRGGG
notes: Sed5, S. cerevisiae S288c, UniProt Q01590, residues 1–319 (transmembrane helix truncated); flexible triple-glycine linker between residue 319 of Sed5 and the 6xHis-tag; Held on GUVs through Ni-NTA tagged lipids by its C-terminal 6xHis-tag, which stands in place of the transmembrane domain; also called 6xHis-tagged Sed5; source: E. coli BL21, purified (Ni-NTA, HiTrap Q, Superdex 200); not shown: …
